Among the targets are HLA-A*02:05; HLA-B*07:02; HLA-B*35:01; HLA-B*52:01; HLA-B*58:01; HLA-B*18:01; HLA-B*44:02; HLA-B*44:03; HLA-B*27:05.
What all share (experiment): IEDB peptide-MHC binding, purified MHC/competitive/radioactivity; ≥ and ≤ were set here for values at or beyond the usual limits of such assays
Conditions in all cases: source organism: Hepatitis delta virus

The values below come from the Immune Epitope Database (IEDB).

Some results are limits rather than exact numbers.

Regarding FPWDILFPS, the IC50 (as a rule, the concentration that gives 50% inhibition) in the assay with HLA-A*02:05 was 11.7 µM; with HLA-B*07:02 it was 13.5 µM; with HLA-B*35:01 it was 0.027 µM.

Turning to DRGFPWDILF, the IC50 is ≥ 50 µM with HLA-A*02:05, ≥ 50 µM with HLA-B*07:02, ≥ 50 µM with HLA-B*35:01 and 4.68 µM with HLA-B*52:01.

With FPWDLLFPA, the IC50 with HLA-A*02:05 was determined as 4.16 µM; in the assay with HLA-B*07:02, 0.467 µM; with HLA-B*35:01, 0.018 µM.

Regarding TGRQGFPW, in the assay with HLA-B*58:01, the IC50 turned out to be 1.55 µM.

As to FPWDMLFPA, the IC50 stood at 5.74 µM with HLA-A*02:05, 0.43 µM in the assay with HLA-B*07:02 and 0.0017 µM with HLA-B*35:01.

Take RGDREFPW: the IC50 with HLA-B*58:01 came out at 0.195 µM.

As to NQGIPWDILF, the IC50 is 7.17 µM with HLA-A*02:05, ≥ 50 µM with HLA-B*07:02, ≥ 50 µM with HLA-B*35:01 and 1.47 µM with HLA-B*52:01.

With QGFPWDLLF, the IC50 with HLA-A*02:05 is 3.41 µM; with HLA-B*07:02, ≥ 50 µM; with HLA-B*35:01, 0.213 µM; in the assay with HLA-B*52:01, 0.135 µM.

EENLWLGNI: the figures for the IC50 with HLA-B*18:01, in the assay with HLA-B*44:02 and with HLA-B*44:03 were 1.99 µM, 0.468 µM and 0.217 µM, respectively.

Take QGFPWDILF: the IC50 with HLA-A*02:05 is 9.63 µM; in the assay with HLA-B*07:02, 44.3 µM; with HLA-B*35:01, 0.118 µM; with HLA-B*52:01, 0.018 µM.

On to RGSQGFPW, for which the IC50 with HLA-B*58:01 worked out at 0.014 µM.

Consider RRKALENKS, for which the IC50 with HLA-B*27:05 is 13.6 µM.

As for RRKALENKR, the IC50 in the assay with HLA-B*27:05 is 0.109 µM.

As for SQGFPWDILF, the IC50 is 3.12 µM with HLA-A*02:05, ≥ 50 µM with HLA-B*07:02, ≥ 50 µM with HLA-B*35:01 and 3.66 µM with HLA-B*52:01.

FPWDILFPA: the results for the IC50 with HLA-A*02:05, with HLA-B*07:02 and with HLA-B*35:01 were 9.37 µM, 0.096 µM and 0.0057 µM, respectively.

Take DDNPWLGNI: the half-maximal inhibitory concentration (IC50) with HLA-B*18:01 was ≥ 50 µM; in the assay with HLA-B*44:02 it was 35.1 µM; with HLA-B*44:03 it was 9.19 µM.
